The source of these data is publication PMC8610991, “The encapsulin from Thermotoga maritima is a flavoprotein with a symmetry matched ferritin-like cargo protein” (Scientific Reports, 2021).

As a reminder, the stoichiometry N is the number of molecules, sites or subunits per partner or assembly.

For data set [1], the target named is T1, T. maritima encapsulin (Thermotoga maritima, UniProt Q9WZP2).
T1 construct: gene enc; encapsulin shell, codon-optimised gene in pET14, E. coli BL21(DE3), co-expressed with His6-tagged FLP cargo (sub-stoichiometric loading); T = 1 icosahedral shell of 12 pentamers; flavin site between two shell subunits; with Encapsulated ferritin-like protein (FLP cargo)
T1 sequence (Q9WZP2 whole entry): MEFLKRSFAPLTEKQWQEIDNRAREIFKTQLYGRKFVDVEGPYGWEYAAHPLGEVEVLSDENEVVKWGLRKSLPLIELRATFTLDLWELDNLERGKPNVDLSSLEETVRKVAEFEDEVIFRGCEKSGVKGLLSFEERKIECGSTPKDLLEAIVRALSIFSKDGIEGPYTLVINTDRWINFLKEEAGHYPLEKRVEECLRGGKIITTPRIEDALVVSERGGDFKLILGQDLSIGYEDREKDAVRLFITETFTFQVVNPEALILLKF
Kind of data set: LC-MS of flavin released from purified encapsulin. Type of data set: binding. The following applies: co-purified minor species; exact flavin composition not determined.

The target in data set [2] is T1, T. maritima encapsulin. Briefly: cryo-EM structure […] A; absorbance, LC-MS of released flavin. The data set is classed as binding. The following applies: co-purified flavin; pi-stacking with W90 between two shell subunits; fluorescence quenched until denatured.
Data set [3] deals with the molecule itself. Briefly: cryo-EM structure; FLP-loaded encapsulin, co-expressed in E. coli and purified as a complex; 2 mg/mL, 0.05% NP-40; 2D classes, I1 reconstruction of the shell (3.3 Å), C1 reconstruction, symmetry expansion and focused classification of the FLP at a pentameric vertex (shell ~3.5 Å, FLP ~7 Å).
Data set [4] addresses Thermotoga maritima encapsulin shell protein (Thermotoga maritima) (UniProt Q9WZP2). Described as above.

Several values for one entry are separate records, joined by “and”; a condition that tells them apart may be missing. Equal entries are not always repeated.

On to `Cc1cc2nc3c(=O)[nH]c(=O)nc-3n(C[C@H](O)[C@H](O)[C@H](O)CO)c2cc1C` [riboflavin], for which the “LC-MS of flavin released from purified encapsulin” value at T. maritima encapsulin [1] is “Both FMN and riboflavin were present as the major and minor peaks respectively”.
Turning to `Cc1cc2nc3c(=O)[nH]c(=O)nc-3n(C[C@H](O)[C@H](O)[C@H](O)COP(=O)(O)O)c2cc1C` [FMN, flavin mononucleotide], the “cryo-EM structure 3.3 A; absorbance, LC-MS of released flavin” value at T. maritima encapsulin [2] was “additional density near W90 that corresponds to a flavin undergoing π–stacking with the tryptophan”.

B1: Thermotoga maritima ferritin-like protein (FLP) cargo (natural protein, UniProt Q9WZP3 1-114, looked up)
chain: MADQYHEPVSELTGKDRDFVRALNSLKEEIEAVAWYHQRVVTTKDETVRKILEHNRDEEMEHAAMLLEWLRRNMPGWDEALRTYLFTDKPITEIEEETSGGSENTGGDLGIRKL
notes: ferritin-like protein, native cargo of the Thermotoga maritima encapsulin; Decamer with fivefold symmetry; The map of the cargo (EMD-24002) has no atomic model of its own; a homologous FLP crystal structure (PDB 5DA5) was docked as a rigid body; also called cargo protein; ferritin-like cargo protein; copies: 10
Consider B1, for which the “stoichiometry N” value in data set [3] is 10. In addition, in data set [4], the stoichiometry N is 3 FLPs/shell and 5 FLPs/shell and 4 FLPs/shell; the stoichiometry N (FLPs per encapsulin) turned out to be 2.
